Values quoted from earlier work, collected in patent US20250388691A1, “METHODS FOR TREATING LYMPHOMA” (Xencor, Inc., priority 2022, published 2025).

Legend:
R/R DLBCL = conditions: ongoing Phase 1 study XmAb13676-01, NCT02924402
[1] = plamotamab, Investigator's Brochure, 2021

plamotamab: humanized bsAb that binds both CD3 and the tumor antigen CD20; Fab-scFv-Fc format
TLS, R/R NHL subjects (Phase 1 monotherapy, 2 of the 80 R/R NHL subjects): 2.5%
any-grade TLS, subjects (Phase 1 monotherapy, CD20-expressing hematologic malignancies, 4 of 96 subjects): 4.2%
CRS (XmAb13676-01 study, especially with the Cycle 1 Day 1 dose): frequently observed
serious or fatal events of TLS (plamotamab monotherapy in R/R DLBCL): no serious or fatal events of TLS
Adverse events of neutropenia (all grades) [1]: 20.8%
Adverse events of thrombocytopenia (all grades) [1]: 24.0%
responses in subjects with R/R DLBCL (R/R DLBCL): durable responses
